Tests used:
[1] = biological target: receptor for Angptl2 expressed on mouse bone marrow hematopoietic stem cells (unidentified) (mouse); experiment: flow cytometry; fresh mouse bone marrow cells, ~1 ug/ml Angptl2-hFc at 4 C for 30 min, anti-human IgG1-PE
[2] = biological target: receptor for Angptl2 expressed on mouse bone marrow hematopoietic stem cells (unidentified) (mouse); experiment: flow cytometry; 4 day cultured mouse bone marrow cells, ~1 ug/ml Flag-Angptl2 medium

Angptl2-hFc (human Angptl2 fused to Pro 100-Lys 330 of human IgG1 Fc) (from UniProt Q9UKU9 23-493) (Fc fusion)
percent of total bone marrow cells that bind [1]: 12.8%

FLAG-hAngptl2 (human Angptl2 with a FLAG tag fused at the C-terminus) (from UniProt Q9UKU9 23-493) (ligand)
percent of total cells that bind [2]: 5.3%
